What was measured:
[1] = tested on: CD8+ T cells; assay: In vitro T-cell priming assay with aAPCs loaded with peptide/MHC complexes and anti-CD28 antibody, pMHC multimer readout; assay type: cell-based, human; conditions: in vitro immunogenicity; for wells: percentage of positive wells, healthy HLA-A*02 donors (Table 10A); for Wells positive [%]: HLA-A*02 restricted peptides, positive wells among evaluable (Table 10B)
From the text: In order to obtain information regarding the immunogenicity of the TUMAPs of the present invention, the inventors performed investigations using an in vitro T-cell priming assay based on repeated stimulations of CD8+ T cells with artificial antigen presenting cells (aAPCs) loaded with peptide/MHC complexes and anti-CD28 antibody.
In order to perform in vitro stimulations by artificial antigen presenting cells loaded with peptide-MHC complex (pMHC) and anti-CD28 antibody, the inventors first isolated CD8+ T cells from fresh HLA-A*02 leukapheresis products via positive selection using CD8 microbeads (Miltenyi Biotec, Bergisch-Gladbach, Germany) of healthy donors obtained from the University clinics Mannheim, Germany, after informed consent.
PBMCs and isolated CD8+ lymphocytes were incubated in T-cell medium (TCM) until use consisting of RPMI-Glutamax (Invitrogen, Karlsruhe, Germany) supplemented with 10% heat inactivated human AB serum (PAN-Biotech, Aidenbach, Germany), 100 U/ml Penicillin/100 μg/ml Streptomycin (Cambrex, Cologne, Germany), 1 mM sodium pyruvate (CC Pro, Oberdorla, Germany), 20 μg/ml Gentamycin (Cambrex). 2.5 ng/ml IL-7 (PromoCell, Heidelberg, Germany) and 10 U/ml IL-2 (Novartis Pharma, Nürnberg, Germany) were also added to the TCM at this step.
Generation of pMHC/anti-CD28 coated beads, T-cell stimulations and readout was performed in a highly defined in vitro system using four different pMHC molecules per stimulation condition and 8 different pMHC molecules per readout condition.
The purified co-stimulatory mouse IgG2a anti human CD28 Ab 9.3 (Jung et al., 1987) was chemically biotinylated using Sulfo-N-hydroxysuccinimidobiotin as recommended by the manufacturer (Perbio, Bonn, Germany). Beads used were 5.6 μm diameter streptavidin coated polystyrene particles (Bangs Laboratories, Illinois, USA).
800.000 beads/200 μI were coated in 96-well plates in the presence of 4×12.5 ng different biotin-pMHC, washed and 600 ng biotin anti-CD28 were added subsequently in a volume of 200 μI. Stimulations were initiated in 96-well plates by co-incubating 1×10^6 CD8+ T cells with 2×10^5 washed coated beads in 200 μI TCM supplemented with 5 ng/ml IL-12 (PromoCell) for 3 days at 37° C. Half of the medium was then exchanged by fresh TCM supplemented with 80 U/ml IL-2 and incubating was continued for 4 days at 37° C. This stimulation cycle was performed for a total of three times. For the pMHC multimer readout using 8 different pMHC molecules per condition, a two-dimensional combinatorial coding approach was used as previously described (Andersen et al., 2012) with minor modifications encompassing coupling to 5 different fluorochromes. Finally, multimeric analyses were performed by staining the cells with Live/dead near IR dye (Invitrogen, Karlsruhe, Germany), CD8-FITC antibody clone SK1 (BD, Heidelberg, Germany) and fluorescent pMHC multimers. For analysis, a BD LSRII SORP cytometer equipped with appropriate lasers and filters was used. Peptide specific cells were calculated as percentage of total CD8+ cells. Evaluation of multimeric analysis was done using the FlowJo software (Tree Star, Oregon, USA). In vitro priming of specific multimer+ CD8+ lymphocytes was detected by comparing to negative control stimulations.

[2] = molecular target: HLA-A*02:01 (Homo sapiens, UniProt P04439, D140Y/D185E/D98H/E176V/E277Q/G131W/G231S/I119V/I121R/I166T/I218V/L300P/L318F/N151K/N90K/P208A/P217A/Q86G/Q94H/R138H/R169H/T345S); assay: MHC binding assay: UV-ligand exchange with β2m ELISA; conditions: peptide exchange yield, binding to HLA-A*02:01
From the text: Candidate peptides for T cell based therapies according to the present invention were further tested for their MHC binding capacity (affinity). The individual peptide-MHC complexes were produced by UV-ligand exchange, where a UV-sensitive peptide is cleaved upon UV-irradiation, and exchanged with the peptide of interest as analyzed. Only peptide candidates that can effectively bind and stabilize the peptide-receptive MHC molecules prevent dissociation of the MHC complexes. To determine the yield of the exchange reaction, an ELISA was performed based on the detection of the light chain (β2m) of stabilized MHC complexes. The assay was performed as generally described in Rodenko et al. (Rodenko et al., 2006).
96 well MAXISorp plates (NUNC) were coated over night with 2 ug/ml streptavidin in PBS at room temperature, washed 4× and blocked for 1 h at 37° C. in 2% BSA containing blocking buffer. Refolded HLA-A*02:01/MLA-001 monomers served as standards, covering the range of 15-500 ng/ml. Peptide-MHC monomers of the UV-exchange reaction were diluted 100 fold in blocking buffer. Samples were incubated for 1 h at 37° C., washed four times, incubated with 2 ug/ml HRP conjugated anti-β2m for 1 h at 37° C., washed again and detected with TMB solution that is stopped with […]. Absorption was measured at 450 nm. Candidate peptides that show a high exchange yield (preferably higher than 50%, most preferred higher than 75%) are generally preferred for a generation and production of antibodies or fragments thereof, and/or T cell receptors or fragments thereof, as they show sufficient avidity to the MHC molecules and prevent dissociation of the MHC complexes.

Peptide exchange [2] | Substance | wells [1] | Wells positive [%] [1]
– | 57 (ALADLTGTVV; listed as Homo sapiens) [compound 57] | + (<20% = +) | –
++++ (> 75% = ++++) | 14 (FLVDSLISA; listed as Homo sapiens) [compound 14] | – | ++ (20%-49% = ++)
– | 59 (QLLAGVFLA; listed as Homo sapiens) [compound 59] | + (<20% = +) | –
+++ (>50 = +++) | 9 (SLYPGTETM; listed as Homo sapiens) [compound 9] | – | + (<20% = +)
++++ (> 75% = ++++) | 20 (ALLGFVTDL; listed as Homo sapiens) [compound 20] | – | ++ (20%-49% = ++)
++++ (> 75% = ++++) | 6 (SLLSELVEA; listed as Homo sapiens) [compound 6] | – | + (<20% = +)
– | 64 (ALYDSVILL; listed as Homo sapiens) [compound 64] | + (<20% = +) | –
++ (>20% = ++) | 7 (SILSLLIKL; listed as Homo sapiens) [compound 7] | – | ++ (20%-49% = ++)
++++ (> 75% = ++++) | 2 (VLLDIFTGV; listed as Homo sapiens) [compound 2] | – | +++ (50%-69% = +++)
++++ (> 75% = ++++) | 8 (SVMELLQGV; listed as Homo sapiens) [compound 8] | – | –
++++ (> 75% = ++++) | 5 (SLFDEVRQI; listed as Homo sapiens) [compound 5] | – | –
++ (>20% = ++) | 45 (VLLHVSVLL; listed as Homo sapiens) [compound 45] | – | –
– | 69 (VLTEFTREV; listed as Homo sapiens) [compound 69] | + (<20% = +) | –
+++ (>50 = +++) | 28 (GLDEAIRKV; listed as Homo sapiens) [compound 28] | – | –
+++ (>50 = +++) | 36 (SLLSDIIAL; listed as Homo sapiens) [compound 36] | – | –
+++ (>50 = +++) | 21 (VLGPEGQLV; listed as Homo sapiens) [compound 21] | – | –
– | 56 (LLLEILHEI; listed as Homo sapiens) [compound 56] | + (<20% = +) | –
– | 62 (SLWGGDVVL; listed as Homo sapiens) [compound 62] | ++ (20%-49% = ++) | –
+++ (>50 = +++) | 17 (KLWEESTAQV; listed as Homo sapiens) [compound 17] | – | –
++++ (> 75% = ++++) | 1 (KLLDNLHDL; listed as Homo sapiens) [compound 1] | – | + (<20% = +)
– | 58 (GVLENIFGV; listed as Homo sapiens) [compound 58] | + (<20% = +) | –
+++ (>50 = +++) | 13 (ALQNKVVAL; listed as Homo sapiens) [compound 13] | – | –
++ (>20% = ++) | 33 (SMTTNLDLKV; listed as Homo sapiens) [compound 33] | – | –
+++ (>50 = +++) | 3 (GLDGATYTV; listed as Homo sapiens) [compound 3] | – | ++++ (> = 70% = ++++)
++++ (> 75% = ++++) | 10 (AILDVVVNL; listed as Homo sapiens) [compound 10] | – | + (<20% = +)
+++ (>50 = +++) | 32 (GLIENTYQL; listed as Homo sapiens) [compound 32] | – | –
++++ (> 75% = ++++) | 23 (GLGPNLVGV; listed as Homo sapiens) [compound 23] | – | ++++ (> = 70% = ++++)
